The record followed here is patent publication US20140271701A1.

The target in the experiment is serum antibodies (IgG) of Sardinian T1D patients, Example 1 (n=34; Ab+ sera) (human). Put plainly: competition ELISA on MAP3865c125-133-coated plates, sera pre-adsorbed with saturating peptide.

As to MIIVSSCAV [ZnT8178-186 peptide (…)], the percent inhibition is 57 to 89%.
